Experimental data: patent US11246958B2, “Haemostatic compositions” (HAEMOSTATIX LIMITED, priority 2015, dated 2022)
Where no end group is shown, it is not given here.

Columns and labels:
[1] = target: T1, purified human fibrinogen (Homo sapiens, UniProt P02675+P02679); assay: Copolymerisation of peptide dendrimers with purified human fibrinogen, clotting time on KC4 Delta coagulation analyser; type: biochemical; settings: for activity of mixtures of peptide conjugate and peptide dendrimer in copolymerising with fibrinogen: conjugate 2 mg/ml mixed with Peptide Dendrimer No. 3 or 4 at 0.025-0.5 mg/ml
T1 sequence (P02679 27-437 isoform P02679-2 limits assumed): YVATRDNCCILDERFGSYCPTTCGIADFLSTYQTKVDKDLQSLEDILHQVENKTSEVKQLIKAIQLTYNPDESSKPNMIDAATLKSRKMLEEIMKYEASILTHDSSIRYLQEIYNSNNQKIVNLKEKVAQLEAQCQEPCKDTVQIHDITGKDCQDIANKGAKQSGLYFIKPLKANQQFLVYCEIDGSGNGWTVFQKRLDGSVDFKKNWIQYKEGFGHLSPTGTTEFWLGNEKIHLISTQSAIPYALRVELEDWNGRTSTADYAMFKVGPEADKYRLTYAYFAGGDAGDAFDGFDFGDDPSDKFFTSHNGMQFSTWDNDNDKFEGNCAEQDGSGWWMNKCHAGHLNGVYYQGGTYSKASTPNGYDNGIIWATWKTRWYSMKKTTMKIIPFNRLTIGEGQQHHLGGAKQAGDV
T1 sequence (P02675 31-491): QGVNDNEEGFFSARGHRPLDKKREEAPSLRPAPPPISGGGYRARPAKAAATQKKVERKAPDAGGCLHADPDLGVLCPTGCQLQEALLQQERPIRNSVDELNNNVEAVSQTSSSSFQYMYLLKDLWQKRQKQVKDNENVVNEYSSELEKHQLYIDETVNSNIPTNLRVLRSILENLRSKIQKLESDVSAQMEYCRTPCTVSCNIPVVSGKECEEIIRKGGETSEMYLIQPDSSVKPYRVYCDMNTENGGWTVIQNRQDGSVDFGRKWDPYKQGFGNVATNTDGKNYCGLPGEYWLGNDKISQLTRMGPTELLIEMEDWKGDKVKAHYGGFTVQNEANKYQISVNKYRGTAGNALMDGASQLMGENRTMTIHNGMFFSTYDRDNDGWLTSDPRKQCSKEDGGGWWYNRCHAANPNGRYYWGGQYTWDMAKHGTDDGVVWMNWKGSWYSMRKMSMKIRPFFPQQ
T1 sequence (P02671 20-629 partner limits assumed): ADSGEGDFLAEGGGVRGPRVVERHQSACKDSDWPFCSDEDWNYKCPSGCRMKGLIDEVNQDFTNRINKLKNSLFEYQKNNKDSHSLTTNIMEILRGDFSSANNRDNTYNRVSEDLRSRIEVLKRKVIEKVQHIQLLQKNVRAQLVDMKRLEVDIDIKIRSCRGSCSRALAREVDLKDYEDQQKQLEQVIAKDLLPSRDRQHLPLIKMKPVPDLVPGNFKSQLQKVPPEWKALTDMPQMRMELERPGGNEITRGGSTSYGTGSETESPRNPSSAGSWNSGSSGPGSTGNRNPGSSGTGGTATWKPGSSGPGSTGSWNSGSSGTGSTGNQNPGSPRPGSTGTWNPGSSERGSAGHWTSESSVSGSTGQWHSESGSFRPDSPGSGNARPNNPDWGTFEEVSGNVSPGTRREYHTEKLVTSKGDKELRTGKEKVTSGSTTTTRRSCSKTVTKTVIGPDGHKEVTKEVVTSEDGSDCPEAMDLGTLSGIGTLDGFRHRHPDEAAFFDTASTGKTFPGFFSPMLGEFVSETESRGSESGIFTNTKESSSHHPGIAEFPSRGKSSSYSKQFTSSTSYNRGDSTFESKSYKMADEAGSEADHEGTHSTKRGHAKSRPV
Protocol: The ability of Peptide Dendrimer No. 12 to polymerise fibrinogen was assessed. 30 μl of dendrimer in solution, at concentration ranging from 0.005-2 mg/ml, was added to 100 μl purified human fibrinogen at 3 mg/ml (the level of fibrinogen found in the blood). Polymerisation of fibrinogen was analysed using a Sigma Amelung KC4 Delta coagulation analyser.
The ability of Peptide Dendrimer Nos. 4, 5, 10, 11, and 12 to copolymerise with fibrinogen was assessed using the same method described in Example 2. The concentration of each dendrimer was varied from 0.005-0.5 mg/ml.
The ability of the dendrimers to copolymerise with fibrinogen was assessed using the same method described in Example 2, for a concentration of each dendrimer ranging from 0.005-0.5 mg/ml.
Peptide Conjugate No. 1 or 2 (2 mg/ml) was mixed with Peptide Dendrimer No. 3 or 4, and fibrinogen, and the ability of the mixtures to copolymerise with fibrinogen was assessed using the same method described in Example 2, for a concentration of each dendrimer ranging from 0.025-0.5 mg/ml.

[2] = target: T2, fibrinogen in human plasma (Homo sapiens, UniProt P02675+P02679); assay: Polymerisation of fibrinogen in human plasma by peptide dendrimers; type: biochemical; settings: 30 μL dendrimer 0.25 mg/ml in 100 μL human plasma, 37° C.
T2 construct: from tissue; host or cells: human plasma
T2 sequence (P02679 27-437 isoform P02679-2 limits assumed): T1 sequence (P02679 27-437 isoform P02679-2 limits assumed)
T2 sequence (P02675 31-491): T1 sequence (P02675 31-491)
T2 sequence (P02671 20-629 partner limits assumed): T1 sequence (P02671 20-629 partner limits assumed)
Protocol: 30 μL of each dendrimer (at a concentration of 0.25 mg/ml) was added to 100 μL human plasma at 37° C., and polymerisation of fibrinogen was determined using a Sigma Amelung KC4 Delta coagulation analyzer.

Substance | activity of mixtures of peptide conjugate and peptide dendrimer in copolymerising with fibrinogen [1] | ability to copolymerise with fibrinogen ([1]; dendrimer 0.005-0.5 mg/ml, fibrinogen 3 mg/ml) | ability to polymerise fibrinogen in human plasma [2]
Peptide Conjugate No. 1: two GPRP fibrinogen-binding peptides each attached by a linker to a lysine residue, second attached by amino-terminal end and amidated (peptide 2 GPRP-NH2; also: each GPRP attached by a linker to a lysine residue, second attached by amino-terminal end) | not active |  | 
Peptide Conjugate No. 2: GHRPY peptide and reverse sequence YPRHG (amidated), each attached by a linker to a lysine residue (peptide 2 YPRHG-NH2; also: each peptide attached by a linker to a lysine residue) | synergistic and increased activity |  | 
Peptide Dendrimer No. 9: three-branch dendrimer, two GPRPFPA peptides and one APFPRPG attached by its amino-terminal end, carboxy-terminal amide (chain 2 APFPRPG-NH2; not fully specified; also: three-branch dendrimer: two GPRPFPA and one APFPRPG attached by amino-terminal end; listed as Homo sapiens) |  | very active in copolymerising with fibrinogen | not able to polymerise fibrinogen in human plasma
